Source: paper PMC8424379 (2021)

Biological target: Raf2 fused to Gal4 DNA-binding domain (UniProt O74560)
Assay: yeast two-hybrid (β-galactosidase)
Conditions: Ccq1 fused to Gal4 activation domain, read off a plot

Sequence of Raf2 fused to Gal4 DNA-binding domain (O74560 whole entry, the tested form may be a part): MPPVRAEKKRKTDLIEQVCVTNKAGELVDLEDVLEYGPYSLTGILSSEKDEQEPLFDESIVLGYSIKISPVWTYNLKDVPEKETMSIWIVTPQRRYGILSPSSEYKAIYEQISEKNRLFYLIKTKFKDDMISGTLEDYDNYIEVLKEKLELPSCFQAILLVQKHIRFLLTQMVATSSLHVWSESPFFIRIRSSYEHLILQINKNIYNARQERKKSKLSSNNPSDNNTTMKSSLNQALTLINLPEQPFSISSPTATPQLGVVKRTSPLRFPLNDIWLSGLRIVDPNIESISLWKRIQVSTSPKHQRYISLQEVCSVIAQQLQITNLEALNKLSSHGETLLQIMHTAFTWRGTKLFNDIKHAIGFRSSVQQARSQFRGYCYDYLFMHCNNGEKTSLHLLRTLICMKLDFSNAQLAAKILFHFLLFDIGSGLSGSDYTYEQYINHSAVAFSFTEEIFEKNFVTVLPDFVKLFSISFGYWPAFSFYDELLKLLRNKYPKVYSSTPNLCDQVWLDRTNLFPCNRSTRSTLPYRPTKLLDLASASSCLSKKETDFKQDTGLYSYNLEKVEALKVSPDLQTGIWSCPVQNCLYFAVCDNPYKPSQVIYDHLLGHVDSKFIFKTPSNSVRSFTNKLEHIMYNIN
Sequence of Ccq1_(496–583), Raf2-binding motif of Ccq1, fused to Gal4 activation domain (Q10432 496-583, stated change not applied): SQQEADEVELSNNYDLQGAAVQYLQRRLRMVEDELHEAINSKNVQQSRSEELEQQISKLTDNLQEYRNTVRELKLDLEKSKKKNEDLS

## Ccq1_(496–583), Raf2-binding motif of Ccq1, fused to Gal4 activation domain (from UniProt Q10432) V570R
  response: 80
